Results as given in patent publication CN112851814A (XIAN YUFAN BIOTECHNOLOGIES CO LTD, dated 2021).

Tests used:
BSA蛋白 = target: T1, BSA蛋白 (UniProt P02769 25-607); experiment: ELISA, BSA coated at 2 μg/mL, dilution series of B48, detected by anti-HA and HRP goat anti-mouse IgG
T1 construct: Control protein in the ELISA; also called 对照蛋白

BCMA蛋白 = target: T2, BCMA蛋白 (human, UniProt Q02223 1-54); experiment: ELISA, BCMA coated at 2 μg/mL, dilution series of B48, detected by anti-HA and HRP goat anti-mouse IgG
T2 construct: extracellular domain; also called 抗原BCMA; B cell maturation antigen
T2 sequence (looked up): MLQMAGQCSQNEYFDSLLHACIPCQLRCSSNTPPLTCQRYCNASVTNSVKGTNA

T1 sequence (P02769 25-607 limits assumed): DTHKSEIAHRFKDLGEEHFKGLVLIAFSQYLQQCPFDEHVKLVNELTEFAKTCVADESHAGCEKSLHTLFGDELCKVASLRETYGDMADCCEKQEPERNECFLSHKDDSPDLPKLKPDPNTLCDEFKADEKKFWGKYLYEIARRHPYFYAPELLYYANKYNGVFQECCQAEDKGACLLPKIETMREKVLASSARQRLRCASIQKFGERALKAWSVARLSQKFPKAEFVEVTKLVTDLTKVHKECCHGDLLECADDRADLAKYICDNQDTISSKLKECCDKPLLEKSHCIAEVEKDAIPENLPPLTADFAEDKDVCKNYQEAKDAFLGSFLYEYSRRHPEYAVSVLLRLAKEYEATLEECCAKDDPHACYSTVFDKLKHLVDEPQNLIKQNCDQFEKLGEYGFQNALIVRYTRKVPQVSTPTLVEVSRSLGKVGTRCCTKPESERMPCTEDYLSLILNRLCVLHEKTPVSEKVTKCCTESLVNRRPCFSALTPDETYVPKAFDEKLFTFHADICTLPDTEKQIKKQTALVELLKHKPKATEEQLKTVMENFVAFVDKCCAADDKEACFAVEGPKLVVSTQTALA

binding result (BSA蛋白): no binding
EC50 (BCMA蛋白): 34 nM
B1: 抗BCMA单链抗体B48 (scFv)
scFv: QVQLVESGGDLVQPGGSLRLSCAASGFTFDDYAMHWVRQAPGKGLEWVSGISWNSGSIGYADSVKGRFTISRDNAKNSLYLQMNSLRAEDTALYYCAKIAGGAFDIWGQGTMVTVSSGGGGSGGGGSGGGGSDIRMTQSPSTLSASVGDRVTITCQASQNIGHFLAWYQHKPGKAPKLLIYAASTLQSGVPSRFSGSGSGTDFTLTISSLQPEDFGTYYCHHYVTVPLTFGQGTRVEIK
notes: Expressed in E. coli BL21 from pET-26b with an N-terminal pelB signal peptide (secreted to the periplasm); Purified protein carries C-terminal HA and 6xHis tags; also called B48单链抗体; not shown: C-terminal 6xHis tag from the vector pET-26b; vector residues between the insert
